Data taken from patent publication US20130209454A1 (CALIFORNIA INSTITUTE OF TECHNOLOGY, published 2013).
Where two headings read alike, the source gives them in different places.

Experiments:
Test in all cases: cell-based or functional assay
[1] = biological target: HIV-1 Env of strain Du172.17 (HIV-1)
[2] = biological target: HIV-1 Env of strain CAP210.2.00.E8 (HIV-1)
[3] = biological target: HIV-1 Env of strain TRO.11 (HIV-1)
[4] = biological target: HIV-1 Env of strain SC422661.8 (HIV-1)
[5] = biological target: HIV-1 Env of strain AC10.0.29 (HIV-1)
[6] = biological target: HIV-1 Env of strain CAP45.2.00.G3 (HIV-1)
[7] = biological target: HIV-1 Env of strain 3016.v5.c45 (HIV-1)
[8] = biological target: HIV-1 Env of strain C2101.c01 (HIV-1)
[9] = biological target: HIV-1 Env of strain T257-31 (HIV-1)
[10] = biological target: HIV-1 Env of strain ZM214M.PL15 (HIV-1)
[11] = biological target: HIV-1 Env of strain QH0692.42 (HIV-1)
[12] = biological target: HIV-1 Env of strain TRO.11 (HIV-1); remark: listed apart in the source
[13] = biological target: HIV-1 Env of strain SC422661.8 (HIV-1); remark: listed apart in the source
[14] = biological target: HIV-1 Env of strain AC10.0.29 (HIV-1); remark: listed apart in the source
[15] = biological target: HIV-1 Env of strain CAP45.2.00.G3 (HIV-1); remark: listed apart in the source
[16] = biological target: HIV-1 strain SC422661.8 envelope (gp120) (HIV-1)
[17] = biological target: HIV-1 strain AC10.0.29 envelope (gp120) (HIV-1)
[18] = biological target: HIV-1 strain ZM214M.PL15 envelope (gp120) (HIV-1)
[19] = biological target: HIV-1 strain CAP45.2.00.G3 envelope (gp120) (HIV-1)
[20] = biological target: HIV-1 strain QH0692.42 envelope (gp120) (HIV-1)
[21] = biological target: HIV-1 strain T257-31 envelope (gp120) (HIV-1)
[22] = biological target: HIV-1 strain TRO.11 envelope (gp120) (HIV-1)
[23] = biological target: HIV-1 strain CNE20 envelope (gp120) (HIV-1)
[24] = biological target: HIV-1 strain CNE21 envelope (gp120) (HIV-1)

B1: NIH45-46 IgG (antibody, V domains shown)
VH: QVRLSQSGGQMKKPGESMRLSCRASGYEFLNCPINWIRLAPGRRPEWMGWLKPRGGAVNYARKFQGRVTMTRDVYSDTAFLELRSLTSDDTAVYFCTRGKYCTARDYYNWDFEHWGRGAPVTVSS
VL: EIVLTQSPATLSLSPGETAIISCRTSQSGSLAWYQQRPGQAPRLVIYSGSTRAAGIPDRFSGSRWGADYNLSISNLESGDFGVYYCQQYEFFGQGTKVQVDI
- neutralization IC50 [1]: > 50 µg/mL
- neutralization IC50 [2]: > 50 µg/mL
- neutralization IC50 [3]: 1 µg/mL
- neutralization IC50 [4]: 0.06 µg/mL
- neutralization IC50 [5]: 0.9 µg/mL
- neutralization IC50 [6]: > 50 µg/mL
- neutralization IC50 [7]: > 30 µg/mL
- neutralization IC50 [8]: 12.8 µg/mL
- neutralization IC50 [9]: 0.5 µg/mL
- neutralization IC50 [10]: 0.3 µg/mL
- neutralization IC50 [11]: 0.7 µg/mL
- neutralization IC50 [12]: 1.9 µg/mL
- neutralization IC50 [13]: 0.05 µg/mL
- neutralization IC50 [14]: 0.9 µg/mL
- neutralization IC50 [15]: > 50 µg/mL

B2: NIH45-46 IgG (antibody, V domains shown)
VH: B1 VH
VL: B1 VL
- neutralization IC50 [16]: 0.05 µg/mL
- neutralization IC50 [17]: 0.9 µg/mL
- neutralization IC50 [18]: 0.5 µg/mL
- neutralization IC50 [19]: > 50 µg/mL
- neutralization IC50 [20]: 0.7 µg/mL
- neutralization IC50 [21]: 0.5 µg/mL
- neutralization IC50 [22]: 1.9 µg/mL
- neutralization IC80 [23]: > 50 µg/mL
- neutralization IC80 [24]: 38.1 µg/mL
